“Also recorded” adds a separate entry of the source.
Experiments:
Type in all cases: cell-based, human
[1] = tested on: rosette-stage neural cells; experiment: Floor plate induction in stromal-feeder (MS5) derived / rosette-stage neural cells; conditions: added to neural rosette stage cells
Method: (§1) For MS5 induction, established methods previously reported were used (Perrier et al., 2004). Feeder free neural induction was carried out as previously described (Chambers et al., 2009). Briefly, hESCs cultures were disaggregated using accutase for 20 minutes, washed using hESCs media and pre-plated on gelatin for 1 hour at 37° C. in the presence of ROCK inhibitor to remove MEFs. The nonadherent hESCs were washed and plated on matrigel at a density of 20,000 cells/cm2 on matrigel (BD) coated dishes in MEF conditioned hESCs media (CM) spiked with 10 ng/mL of FGF-2 and ROCK-inhibitor. The ROCK inhibitor was withdrawn, and hESCs were allowed to expand in CM for 3 days or until they were nearly confluent. The initial differentiation media conditions included knock out serum replacement (KSR) media with […] TGF-b inhibitor (SB431542, Tocris) and 500 ng/mL of Noggin (R&D). Upon day 5 of differentiation, increasing amounts of N2 media (25%, 50%, 75%) was added to the KSR media every two days while maintaining 500 ng/mL of Noggin and TGF-b inhibitor. For FP induction, Sonic C25II was added at 200 ng/ml.
hESC derived neural cells at the rosette stage were differentiated into both CNS and PNS progeny and patterned towards multiple cells fates along the A/P and D/V axis (Elkabetz et al., 2008). […] Specification of progenitor cells into FP tissue and cells during mouse development was thought to depend on SHH signaling within early neural lineages. The inventors tested whether rosette-stage neural cells were competent to undergo FP specification in response to SHH. High concentrations of SHH were needed to induce FP during mouse development (Roelink et al., 1994; Ericson et al., 1996). Recombinant N-terminal SHH has a limited activity range due to the lack of posttranslational modifications required for full SHH action. Recently, a modified version of recombinant SHH became available where SHH was tethered to two Isoleucines (Sonic C25II, R&D Systems), mimicking more closely the potency of mammalian SHH protein.
The majority of cells retained rosette cytoarchitecture and staining for the AN marker BF1 as described previously (FIG. 1A) (Elkabetz et al., 2008).
Based on the hypothesis that FP specification in the mouse occurs at early developmental stages, at the time of or prior to neural induction, the inventors repeated SHH induction studies at Day 9, the time of rosette specification, using classic stromal-feeder mediated neural induction protocols (Elkabetz et al., 2008). Under this paradigm the inventors noticed a drastic change in cell morphology restricted to the cells treated with SHH-C25II (FIG. 1B).

hESCs [2] = experiment: Floor plate induction in NSB protocol, FOXA2 immunostaining; conditions: added early along FP differentiation; BIO 100 nM
Method: as §1
Tissue was fixed using 4% paraformaldehyde and Picric acid for 15 minutes, washed with PBS, permeablized using 0.3% Triton X in PBS, and blocked using 10% Donkey Serum. Primary antibodies used for microscopy included PAX6 (Covance), TUJ1 (Covance), ZO1 (Zymed), BF1 (FOXG1, gift E.Lai), TH (Pelfreez), NKX6.1 (DSHB) and FOXA2 (SantaCruz).
Using this protocol, in combination with compositions and methods of the present inventions, the inventors aimed to optimize FP differentiation by adding Sonic C25II at different time points during neural induction and assaying for FOXA2 expression. Differentiation was initiated upon NSB exposure, and Sonic C25II was added at Day 1, Day 3, Day 5, or Day 7 (FIG. 2A).

hESC = experiment: Real-Time PCR of pluripotency and germ layer markers in treated hESC
Method: Cells and Culture Conditions (dual SMAD and floor plate). hESCs (WA-09; passages 35-45) were cultured on mouse embryonic fibroblasts plated at 12-15,000 cells/cm2 (MEFs, Global Stem). A medium of DMEM/F12, 20% knockout serum replacement (GIBCO), 0.1 mM b-mercaptoethanol, 6 ng/mL FGF-2 was changed daily. Cells were passaged using 6 U/mL of dispase in hESCs media, washed and re-plated at a dilution of 1:5 to 1:10. Neural Induction (Dual SMAD). hESC cultures were disaggregated using accutase for 20 minutes, washed using hESC media and pre-plated on gelatin for 1 hour at 37° C. in the presence of ROCK inhibitor to remove MEFs. The nonadherent hESC were washed and plated on matrigel at a density of 10,000-25,000 cells/cm^2 on matrigel (BD) coated dishes in MEF conditioned hESC media (CM) spiked with 10 ng/mL of FGF-2 and ROCK-inhibitor. […] The ROCK inhibitor was withdrawn, and hESC were allowed to expand in CM for 3 days or until they were nearly confluent. The initial differentiation media conditions included knock out serum replacement (KSR) media with […] TGF-beta inhibitor (SB431542, Tocris) and 500 ng/mL of Noggin (R&D). Upon day 5 of differentiation, the TGF-b inhibitor was withdrawn and increasing amounts of N2 media (25%, 50%, 75%) was added to the KSR media every two days while maintaining 500 ng/mL of Noggin. For MS5 induction, established methods previously reported were used^18. Quantitative Real-Time (Dual SMAD). Total RNA was extracted using an RNeasy kit (Qiagen). For each sample, 1 ug of total RNA was treated for DNA contamination and reverse transcribed using the Quantitect RT kit (Qiagen). Amplified material was detected using Quantitect SYBR green probes and PCR kit (Qiagen) on a Mastercycler RealPlex2 (Eppendorf). Results were normalized to a HPRT control and are from 4-6 technical replicates of 2-3 independent biological samples at each data point. Neuronal Patterning and Differentiation (Dual SMAD). Dopaminergic patterning was initiated using BDNF, ascorbic acid, sonic hedgehog, and FGF8 in N2 media as previously reported^18, and maturation was performed in the presence of BDNF, ascorbic acid, GDNF, TGFb-1, and cyclic-AMP. Motor neuron patterning was performed using BDNF, ascorbic acid, sonic hedgehog, and retinoic acid in N2 media as previously reported^16. Microscopy, Antibodies, and Flow Cytometry (Dual SMAD). Tissue was fixed using 4% paraformaldehyde for 20 minutes, washed with PBS, permeablized using 0.5% Triton X in PBS, and blocked using 1% BSA in PBS. Primary antibodies used for microscopy included PAX6 (Covance), Oct4 (Biovision), AP2 (Novus Biologicals), GBX2 (Sigma), HNK1 (Sigma), HOXB4 (Developmental Studies Hybridoma Bank (DSHB)), Nestin (R&D), NKX6.1 (DSHB), OTX2 (gift), p75 (Advanced Target Systems.), PAX7 (DSHB), PLZF (Calbiochem), TUJ1 (Covance), ZO1 (Zymed), BF1 (FOXG1, gift Esseng Lai), TH (Sigma), HB9 (DSHB), ISL1 (DSHB). CD105-PE (eBioscience) was used for excluding MS5 stromal cells for flow cytometery on a FACS can (BD). Floor Plate: Neural Induction.

hESCs [3] = experiment: qRT-PCR of FP, AN and regional markers during FP induction
Method: as §1
Total RNA was extracted using an RNeasy kit (Qiagen). For each sample, 1 ug of total RNA was treated for DNA contamination and reverse transcribed using the Superscript III (Invitrogen). Amplified material was detected using Taqman probes and PCR mix (ABI) on a Mastercycler RealPlex2 (Eppendorf). All results were normalized to a HPRT control and are from 3 technical replicates of 3 independent biological samples at each data point.
FOXA2 is a key marker of FP development. However, FOXA2 is also highly expressed in the endoderm. To further characterize the hESC derived putative FP tissue, the inventors performed qRT-PCR analyses for candidate markers at Day 11. […] The inventors further characterized the nature of FOXA2+ putative FP cells using a panel of neural precursor, glial, neuronal and non-neural markers (FIG. 7). […] To distinguish FOXA2 expression in hESC derived FP versus endoderm tissue, the inventors differentiated hESCs to endoderm (D'Amour et al., 2005).
To gain further insight into the factors critical for human FP specification, high resolution temporal gene expression profiles of candidate markers were performed at 6 time points during the 11 day protocol.
The inventors contemplated the use of SIX6 as a putative marker of anterior FP identity. Thus SIX6 status of the hESC derived FP was used to mark respecification in response to known caudalizing agents such as FGF8, Wnt-1, and Retinoic Acid. Each of these caudalizing factors was added in combination with SHH and the resulting tissue was assessed for expression of the FP markers FOXA2 and NETRIN-1, the AN marker BF1, and putative anterior FP marker SIX6.

hESCs derived FP = experiment: SHH enhancer (SBE1/SBE2) LacZ constructs in hESC derived FP
Text: As mentioned above, studies had identified different enhancers that directed SHH expression to different A/P region along ventral axis (Jeong et al., 2008). […] In the absence of caudalizing factors (SHH C25II alone), LacZ expression was observed herein following transfection with the SBE2 but not the SBE1 enhancer supporting the hypothesis that hESC derived FP is anterior by default (FIG. 6C). In contrast SBE2 activity was abolished upon treatment with Wnt1 or FGF8 while SBE1 activity was induced under these conditions.

[4] = caudalizing factor added in combination with SHH

O=C1Nc2cc(Br)ccc2/C1=C1/Nc2ccccc2/C1=N\O [BIO, reference compound]
FP competency of neural rosette stage cells [1]: not sufficient to induced FP competency | FOXA2 expression (hESCs [2]): can increase FOXA2 expression

NC(=O)c1ccc(-c2nc(-c3ccc4c(c3)OCO4)c(-c3ccccn3)[nH]2)cc1 [SB431542, 4-[4-(1,3-benzodioxol-5-yl)-5-(2-pyridinyl)-1H-imidazol-2-yl]-benzamide]
Brachyury expression (mesodermal lineage) (hESC): suppression of Brachyury | CDX2 expression (hESC): dramatic increase | Nanog expression (hESC; hESC in KSR): rapid loss of Nanog expression; also recorded: most dramatic downregulation

Noggin
CDX2 expression (hESC): Suppression of CDX2 | SOX17 expression (endodermal lineage) (hESC): suppression of SOX17

B1: Wnt3A: WNT protein added to neural rosette stage cells (protein, UniProt P56704 19-352, looked up)
Protein Wnt-3a: SYPIWWSLAVGPQYSSLGSQPILCASIPGLVPKQLRFCRNYVEIMPSVAEGIKIGIQECQHQFRGRRWNCTTVHDSLAIFGPVLDKATRESAFVHAIASAGVAFAVTRSCAEGTAAICGCSSRHQGSPGKGWKWGGCSEDIEFGGMVSREFADARENRPDARSAMNRHNNEAGRQAIASHMHLKCKCHGLSGSCEVKTCWWSQPDFRAIGDFLKDKYDSASEMVVEKHRESRGWVETLRPRYTYFKVPTERDLVYYEASPNFCEPNPETGSFGTRDRTCNVSSHGIDGCDLLCCGRGHNARAERRREKCRCVFHWCCYVSCQECTRVYDVHTCK
FP competency of neural rosette stage cells [1]: not sufficient to induced FP competency

B2: Wnt-1: caudalizing factor (Peprotech 50 ng/ml) (protein, UniProt P04628 28-370, looked up)
Proto-oncogene Wnt-1: ANSSGRWWGIVNVASSTNLLTDSKSLQLVLEPSLQLLSRKQRRLIRQNPGILHSVSGGLQSAVRECKWQFRNRRWNCPTAPGPHLFGKIVNRGCRETAFIFAITSAGVTHSVARSCSEGSIESCTCDYRRRGPGGPDWHWGGCSDNIDFGRLFGREFVDSGEKGRDLRFLMNLHNNEAGRTTVFSEMRQECKCHGMSGSCTVRTCWMRLPTLRAVGDVLRDRFDGASRVLYGNRGSNRASRAELLRLEPEDPAHKPPSPHDLVYFEKSPNFCTYSGRLGTAGTAGRACNSSSPALDGCELLCCGRGHRTRTQRVTERCNCTFHWCCHVSCRNCTHTRVLHECL
FP competency of neural rosette stage cells [1]: not sufficient to induced FP competency | FP production based on FOXA2 and Netrin-1 expression (hESCs [3]; added in combination with SHH): significantly potentiated FP production | BF1 expression (hESCs [3]; [4]): dramatic reduction in BF1 expression | SIX6 expression (hESCs [3]; [4]): significant reduction in SIX6 expression | midbrain FP markers CORIN and NOV and DA progenitor markers LMX1B, EN1, NGN2 (hESCs [3]; qPCR): significant increase | SBE1 enhancer activity (LacZ) (hESCs derived FP): induced | SBE2 enhancer activity (LacZ) (hESCs derived FP): abolished

B3: FGF8: caudalizing factor (R&D 50 ng/ml) (protein, UniProt P55075 23-233, looked up)
Fibroblast growth factor 8: QEGPGRGPALGRELASLFRAGREPQGVSQQHVREQSLVTDQLSRRLIRTYQLYSRTSGKHVQVLANKRINAMAEDGDPFAKLIVETDTFGSRVRVRGAETGLYICMNKKGKLIAKSNGKGKDCVFTEIVLENNYTALQNAKYEGWYMAFTRKGRPRKGSKTRQHQREVHFMKRLPRGHHTTEQSLRFEFLNYPPFTRSLRGSQRTWAPEPR
SIX6 expression (hESCs [3]; [4]): significant reduction in SIX6 expression | SBE1 enhancer activity (LacZ) (hESCs derived FP): induced | SBE2 enhancer activity (LacZ) (hESCs derived FP): abolished

From patent US11560546B2, “Methods for neural conversion of human embryonic stem cells” (MEMORIAL SLOAN KETTERING CANCER CENTER, priority 2009, dated 2023)
